Residue numbers refer to the chain shown, from its start.
B1: hu46H2L2 (antibody, human IgG1, kappa, V domains shown)
VH: EVQLVESGGGLVKPGGSLRLSCAASGFTFSNYGMSWVRQAPGKGLEWVSTIGSGGGYTYYSDSVKGRFTISRDNAKNSLYLQMNSLRAEDTAVYYCVRHPQIGYWGQGTLVTVSS
VL: DIQMTQSPSSLSASVGDRVTITCKASQSVGTAVAWYQQKPGKAPKLLIYSASSRYTGVPSRFSGSGSGTDFTLTISSLQPEDFADYFCHQYSSYPLTFGGGTKVEIKR
B2: hu41H2L2 (antibody, human IgG1, kappa, V domains shown)
VH: EVQLVQSGAEVKKPGASVKVSCKASGYTFTSYGISWVRQAPGQGLEWMGEIFPRRGNTYYNEKFRGRVTLTADKSTSTAYMELRSLRSDDTAVYYCARVFDGYYNYAMDYWGQGTTVTVSS
VL: DIQMTQSPSSLSASVGDRVTITCRASQDIGSSLNWLQQKPGKAIKRLIYATSSLDSGVPSRFSGSRSGTDYTLTISSLQPEDFATYYCLQYASSPYTFGGGTKVEIKR
B3: hu71H2L1 (antibody, human IgG1, kappa)
heavy: not shown
light: DIVMTQTPLSLPVTPGEPASISCRSSQSLVHSYGNTYLHWYLQKPGQSPQLLIYKVSNRFSGVPDRFSGSGSGTDFTLKISRVEAEDVGVYYCSQTTHVPWTFGGGTKVEIKRTVAAPSVFIFPPSDEQLKSGTASVVCLLNNFYPREAKVQWKVDNALQSGNSQESVTEQDSKDSTYSLSSTLTLSKADYEKHKVYACEVTHQGLSSPVTKSFNRGEC
B4: hu71H4L2 (antibody, human IgG1, kappa)
heavy: not shown
light: B3 light with I2V, M4V
B5: hu71H2L2 (antibody, human IgG1, kappa)
heavy: not shown
light: B3 light with I2V, M4V
B6: hu71H3L2 (antibody, human IgG1, kappa)
heavy: not shown
light: B3 light with I2V, M4V
notes: also called hu71L2H3
B7: hu71H4L1 (antibody, human IgG1, kappa)
heavy: not shown
light: B3 light
B8: Chi31 (antibody, human IgG1, kappa, V domains shown)
VH: EVKLVESEGGLVQPGSSKKLSCTASGFTFSDYYMAWVRQVPEKGLEWVASINYDGSSTYYLDSLKSRFIISRDNAKNNLYLQMNSLKSEDTATYYCAGSDGYWAWFAYWGQGTLVTVSA
VL: DIQMTQSPASLSASVGEAVTITCRASGNIHNYLAWYQQKQGKSPQLLVYNAETLADGVPSRFSGSGSGTQFSLKINSLRPEDFGSYYCQHFWSTPPTFGGGTKLEIKR
B9: hu31H1L1 (antibody, human IgG1, kappa, V domains shown)
VH: EVQLVESGGGLVQPGGSLRLSCAASGFTFSDYYMAWVRQAPGKGLEWVASINYDGSSTYYLDSLKSRFTISRDNAKNSLYLQMNSLRAEDTAVYYCAGSDGYWAWFAYWGQGTLVTVSS
VL: DIQMTQSPSSLSASVGDRVTITCRASGNIHNYLAWYQQKPGKAPKLLIYNAETLADGVPSRFSGSGSGTDFTLTISSLQPEDFATYYCQHFWSTPPTFGGGTKVEIKR
B10: PL-12 (bispecific antibody)
chain 1: not shown
chain 2: DIVLTQSPASLAVSPGQRATITCRASESVSIHGTHLMHWYQQKPGQPPKLLIYAASKLESGVPARFSGSGSGTDFTLTINPVEAEDTANYYCQQSFEDPLTFGQGTKLEIKRTVASGIPPKIECLPIDISIDEGKCLTVASAFTGEPTPEVTWSTGGRKIHSQEQGRFHIENTDDSTTLTIKDVQKQDGGLYTLTLRNEFGSDSATVNIHIRSI
chain 3: not shown
chain 4: not shown
B11: PL-15 (bispecific antibody)
chain 1: not shown
chain 2: B10 chain 2
chain 3: not shown
chain 4: not shown
B12: PL-13 (bispecific antibody)
chain 1: not shown
chain 2: B10 chain 2 with C136V, A142C
chain 3: not shown
chain 4: not shown
B13: PL-14 (bispecific antibody)
chain 1: not shown
chain 2: B10 chain 2 with C136V
chain 3: not shown
chain 4: not shown
B14: PL-17 (bispecific antibody)
chain 1: not shown
chain 2: B10 chain 2 with C136V
chain 3: not shown
chain 4: not shown
B15: hu27H1L2 (antibody, human IgG1, kappa)
heavy: not shown
light: EIVLTQSPDFQSVTPKEKVTITCSASSSVSYMYWYQQKPDQSPKPWIYRTSNLASGVPSRFSGSGSGTDYTLTINSLEAEDAATYYCQQYHSYPLTFGQGTKLEIKRTVAAPSVFIFPPSDEQLKSGTASVVCLLNNFYPREAKVQWKVDNALQSGNSQESVTEQDSKDSTYSLSSTLTLSKADYEKHKVYACEVTHQGLSSPVTKSFNRGEC
B16: hu27H1L1 (antibody, human IgG1, kappa)
heavy: not shown
light: B15 light with Y70F
B17: hu27H1L5 (antibody, human IgG1, kappa)
heavy: not shown
light: B15 light with T22Q
B18: hu27H1L4 (antibody, human IgG1, kappa)
heavy: not shown
light: B15 light with T22Q, Y70F
B19: hu27H1L3 (antibody, human IgG1, kappa)
heavy: not shown
light: B15 light with E1Q
B20: hu50H1L2 (antibody, human IgG1, kappa)
heavy: not shown
light: DVFMTQSPLSLPVTPGEPASISCRSSQSILHSNGNTYLEWYLQKPGQSPQLLIYRVSNRFSGVPDRFSGSGSGTDFTLKISRVEAEDVGVYYCFQGLHVPPTFGQGTKLEIKRTVAAPSVFIFPPSDEQLKSGTASVVCLLNNFYPREAKVQWKVDNALQSGNSQESVTEQDSKDSTYSLSSTLTLSKADYEKHKVYACEVTHQGLSSPVTKSFNRGEC
notes: also called hu50L2H1
B21: chi73 (antibody, human IgG1, kappa, V domains shown)
VH: QVQLQQSGPELVKPGASVKISCKASGYAFSTSWMNWVKERPGKGLEWIGRIYPGDGDTKYNGKFQGKATLTADKSSSTAYMKLSSLTSEDSAVYFCVRSIYYLYYFDYWGQGTTLTVSS
VL: DIQMTQPTSSLSASLGDRVTISCSTSQDIYNNLSWFQQKPDGTVRLLIYYTSSLHSGVPSRFSGSGSGTDYSLTISNLEPEDIATYYCQQYNNLPFTFGGGTNLEIRR
B22: hu2H1L1 (antibody, human IgG1, kappa, V domains shown)
VH: EVQLVESGGGLVQPGGSLRLSCAASGFTFSDYYMAWVRQAPGKGLEWVANINFDGSSTYYLDSLKSRFTISRDNAKNSLYLQMNSLRAEDTAVYYCARDLDGYYGYFDVWGQGTTVTVSS
VL: EIVLTQSPDFQSVTPKEKVTITCSASSSVSHMYWYQQKPDQSPKLLIYRTSNLASGVPSRFSGSGSGTDFTLTINSLEAEDAATYYCQQYHSYPLMFGQGTKLEIKR
B23: hu27H1L6 (antibody, human IgG1, kappa)
heavy: not shown
light: B15 light with E1Q, T22Q
B24: hu15H4L2 (antibody, human IgG1, kappa, V domains shown)
VH: EFQLVQSGAEVKKPGASVKVSCKASGYSFTDHNMNWVRQAPGQRLEWMGLINPNYGTADYNQKFKGRVTLTVDQSATTAYMELSSLRSEDTAVYYCARGSSLFAYWGQGTLVTVSS
VL: DIQMTQSPSSLSASVGDRVTITCKASQGVDTAVAWYQQKPGKSPKLLIYWASTRHTGVPDRFSGSGSGTDFTLTISSLQPEDVATYYCQQYSRYPLTFGQGTKLEIKR
B25: hu43H3L2 (antibody, human IgG1, kappa, V domains shown)
VH: EVQFVESGGGLVQPGGSLRLSCAASGFTFSNYWMNWLRQAPGKGLEWVAQVRLKSDNYATHYAESVKGRFTISREDAKNSAYLQMNSLRAEDTAVYYCSENYYGPAGPFDFWGQGTTVTVSS
VL: B24 VL with G28N, D30H, A32S, W50S, T53N, H55Y, T56S, D60S, R93S

Columns and labels:
[1] = target: T1, human PSMA on cells (Cho-hPSMA, CHO-K1 cells overexpressing full-length human PSMA) (human, UniProt Q04609 1-750); assay: cell ELISA (OD450), Cho-hPSMA cells
T1 construct: whole, on cells; also called cell surface PSMA; PSMA-expressing Lncap cells
T1 sequence (Q04609 whole entry): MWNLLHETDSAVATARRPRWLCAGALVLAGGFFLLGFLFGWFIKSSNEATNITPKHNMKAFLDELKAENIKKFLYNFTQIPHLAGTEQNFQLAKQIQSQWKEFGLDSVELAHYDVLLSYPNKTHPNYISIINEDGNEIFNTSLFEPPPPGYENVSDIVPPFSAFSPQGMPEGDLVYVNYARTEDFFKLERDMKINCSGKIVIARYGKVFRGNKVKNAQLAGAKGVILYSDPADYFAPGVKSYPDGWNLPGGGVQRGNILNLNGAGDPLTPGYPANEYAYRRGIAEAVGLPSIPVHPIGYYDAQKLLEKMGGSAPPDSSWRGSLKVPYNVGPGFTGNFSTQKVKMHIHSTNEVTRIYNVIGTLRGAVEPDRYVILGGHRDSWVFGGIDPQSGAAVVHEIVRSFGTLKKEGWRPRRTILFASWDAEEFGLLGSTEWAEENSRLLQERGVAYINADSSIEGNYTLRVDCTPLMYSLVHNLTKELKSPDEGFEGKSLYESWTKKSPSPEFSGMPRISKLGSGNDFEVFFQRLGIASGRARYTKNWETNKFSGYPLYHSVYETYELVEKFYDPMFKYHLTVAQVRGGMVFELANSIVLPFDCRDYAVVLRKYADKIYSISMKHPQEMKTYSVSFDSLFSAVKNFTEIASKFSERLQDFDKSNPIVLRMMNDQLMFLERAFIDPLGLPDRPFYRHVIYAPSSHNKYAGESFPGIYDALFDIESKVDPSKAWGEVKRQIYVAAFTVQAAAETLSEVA
Method: Experiment 2: Cells were cultured and inoculated onto a cell plate using the same method as in Experiment 1. The antibodies were serially diluted, and the antibody solutions were added to the cell plate at 100 μL/well. The plate was incubated at 4° C. for 1 h and then washed. An HRP-Goat Anti-human IgG (H+L) secondary antibody dilution (1:8000) was added to the cell plate at 100 μL/well, and the plate was incubated at 4° C. for 1 h and then washed by centrifugation. After color development with TMB, the reaction was stopped with 0.1 M sulfuric acid, and OD450 values were measured.

[2] = target: T2, human PSMA antigen (R&D SYSTEM, 4234-ZN-010) (human, UniProt Q04609 44-750); assay: ELISA, plate-bound PSMA antigen
T2 construct: bought antigen
T2 sequence (Q04609 44-750 limits assumed): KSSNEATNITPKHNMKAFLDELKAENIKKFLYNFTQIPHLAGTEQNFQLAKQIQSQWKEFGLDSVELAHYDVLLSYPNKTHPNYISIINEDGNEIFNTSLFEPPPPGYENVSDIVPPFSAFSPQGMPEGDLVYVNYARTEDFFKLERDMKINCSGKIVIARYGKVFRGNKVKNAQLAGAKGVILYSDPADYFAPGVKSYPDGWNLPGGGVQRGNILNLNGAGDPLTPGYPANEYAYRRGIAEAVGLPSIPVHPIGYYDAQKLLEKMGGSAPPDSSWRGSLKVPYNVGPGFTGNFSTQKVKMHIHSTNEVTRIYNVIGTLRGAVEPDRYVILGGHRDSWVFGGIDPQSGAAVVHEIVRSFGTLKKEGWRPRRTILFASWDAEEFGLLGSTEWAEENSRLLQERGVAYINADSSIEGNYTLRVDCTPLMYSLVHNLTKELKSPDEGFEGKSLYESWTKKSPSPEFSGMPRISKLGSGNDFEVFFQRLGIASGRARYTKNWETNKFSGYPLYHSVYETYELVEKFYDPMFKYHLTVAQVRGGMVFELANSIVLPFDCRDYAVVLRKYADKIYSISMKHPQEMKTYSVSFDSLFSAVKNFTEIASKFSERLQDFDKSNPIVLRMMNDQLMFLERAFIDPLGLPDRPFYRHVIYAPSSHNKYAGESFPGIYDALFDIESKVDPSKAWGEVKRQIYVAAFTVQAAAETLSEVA
Method: To test the ability of the PSMA-targeting humanized antibodies of the present disclosure to bind to PSMA antigen, the ELISA method was used in this test example to measure the binding of the PSMA-targeting humanized antibodies to human PSMA antigen (purchased from R&D SYSTEM, 4234-ZN-010). The specific steps are as follows: A 96-well plate was coated with PSMA antigen at 1 μg/well and placed at 4° C. overnight. After the supernatant was discarded, the plate was blocked with 5% skim milk for 2 h. Different concentrations of humanized antibodies were prepared using 1% BSA. The initial concentration was 10 μg/mL and was serially diluted 4-fold to obtain 12 concentrations. After the blocked 96-well plate was washed twice, the […] was added, and the plate was incubated at 4° C. for 1 h. After four washes, the plate was incubated with Strepidation-HRP secondary antibody (1:10,000) at 4° C. for 1 h. After color development with TMB, the reaction was stopped with 0.1 M sulfuric acid.

[3] = target: hPDL1 (human, UniProt Q9NZQ7 19-238); assay: ELISA
Sequence of hPDL1 (Q9NZQ7 19-238 limits assumed): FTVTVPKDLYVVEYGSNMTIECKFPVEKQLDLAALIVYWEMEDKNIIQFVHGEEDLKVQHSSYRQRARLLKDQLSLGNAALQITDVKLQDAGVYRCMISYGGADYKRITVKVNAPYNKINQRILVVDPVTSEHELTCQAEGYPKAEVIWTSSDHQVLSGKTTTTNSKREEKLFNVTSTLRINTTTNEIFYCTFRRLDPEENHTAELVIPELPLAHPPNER

[4] = target: hCTLA4 (human, UniProt P16410 36-161); assay: ELISA
Sequence of hCTLA4 (P16410 36-161 limits assumed): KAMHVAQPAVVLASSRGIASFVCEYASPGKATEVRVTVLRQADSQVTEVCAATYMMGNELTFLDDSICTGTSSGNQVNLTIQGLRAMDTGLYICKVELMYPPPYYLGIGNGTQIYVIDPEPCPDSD

| Binder | EC50 [1] [µg/mL] | EC50 [2] [µg/mL] | Top (maximum absorbance) [2] [absorbance] | EC50 [3] [nM] | EC50 [4] [nM] |
| --- | --- | --- | --- | --- | --- |
| B1 | 0.0202 | 0.0365 | 1.67 | – | – |
| B2 | 1.1 | 0.61 | 0.421 | – | – |
| B3 | 0.0631 | – | – | – | – |
| B4 | 0.0867 | – | – | – | – |
| B5 | 0.116 | – | – | – | – |
| B6 | 0.112 | 0.0589 | 0.952 | – | – |
| B7 | 0.101 | – | – | – | – |
| B8 | 0.141 | – | – | – | – |
| B9 | 0.142 | 0.0864 | 1.76 | – | – |
| B10 | – | – | – | 0.5 | 8 |
| B11 | – | – | – | 1.4 | 3.2 |
| B12 | – | – | – | 0.5 | 4.4 |
| B13 | – | – | – | 1.3 | 6 |
| B14 | – | – | – | 1.4 | 6.2 |
| B15 | 1.65 | – | – | – | – |
| B16 | 1.17 | – | – | – | – |
| B17 | 2.39 | – | – | – | – |
| B18 | 1.73 | – | – | – | – |
| B19 | 1.4 | – | – | – | – |
| B20 | 0.0603 | 0.0421 | 1.3 | – | – |
| B21 | – | 0.029 | 2.08 | – | – |
| B22 | – | 0.0354 | 0.975 | – | – |
| B23 | 2.77 | 0.398 | 0.553 | – | – |
| B24 | 0.0795 | 0.0421 | 2.23 | – | – |
| B25 | 4.03 | 1.06 | 0.245 | – | – |

Source: patent US20250043022A1 (JIANGSU HENGRUI PHARMACEUTICALS, published 2025)
